Test results from US8835467B2, “SIR2 regulation” (Albert Einstein College of Medicine of Yeshiva University, priority 2003, dated 2014).

Tested on: NC(=O)c1cccnc1
Experiment: Sir2 catalyzed base exchange with H4 N-terminal peptide
Assay type: biochemical, yeast
Conditions: other: 0 mM isonicotinamide

Substance: Yeast Sir2 (Saccharomyces cerevisiae S288C)
- Km: 120 µM
